Measurements taken from patent publication US20200000897A1 (published 2020).

B1: RLAVSTRGK (peptide)
peptide: RLAVSTRGK
B2: RSNPYFQNK (peptide)
peptide: RSNPYFQNK
B3: GISNPITTSK (peptide)
peptide: GISNPITTSK
B4: KVMPKQTWK (peptide)
peptide: KVMPKQTWK
B5: EGLFLLGCVK (peptide)
peptide: EGLFLLGCVK
B6: SLYDGFLSY (peptide)
peptide: SLYDGFLSY
B7: RVYPRPPSKTY (peptide)
peptide: RVYPRPPSKTY
B8: RVWLGKHYK (peptide)
peptide: RVWLGKHYK
B9: AVYNYPEGAAY (peptide)
peptide: AVYNYPEGAAY
B10: KLSLSHKK (peptide)
peptide: KLSLSHKK
B11: SVLDKLLFH (peptide)
peptide: SVLDKLLFH
B12: AVIGALLAVGATK (peptide)
peptide: AVIGALLAVGATK
B13: QVRDTLKIVFK (peptide)
peptide: QVRDTLKIVFK
B14: RSYVPLAH (peptide)
peptide: RSYVPLAH
B15: AVAQKLLSH (peptide)
peptide: AVAQKLLSH
B16: RLSPGPRAY (peptide)
peptide: RLSPGPRAY
B17: TMWQIPQEFVK (peptide)
peptide: TMWQIPQEFVK
B18: RLPLRVVKH (peptide)
peptide: RLPLRVVKH
B19: AVCGGVLVH (peptide)
peptide: AVCGGVLVH
B20: KLETGVVKK (peptide)
peptide: KLETGVVKK
B21: KTWAHCMSY (peptide)
peptide: KTWAHCMSY
B22: QLGYQAAVLK (peptide)
peptide: QLGYQAAVLK
B23: SGSTLECILYK (peptide)
peptide: SGSTLECILYK
B24: STLECILYK (peptide)
peptide: STLECILYK
B25: KVLSILSRLK (peptide)
peptide: KVLSILSRLK
B26: ILDSSLLK (peptide)
peptide: ILDSSLLK
B27: HAFFPKTHR (peptide)
peptide: HAFFPKTHR
B28: LLYGNGPGYVLK (peptide)
peptide: LLYGNGPGYVLK
B29: LLDAEPPILY (peptide)
peptide: LLDAEPPILY
B30: KLLEDMVEK (peptide)
peptide: KLLEDMVEK

The binders below were run against T1, HLA-A*03:01 (human) (assay: UV-ligand exchange, anti-b2m ELISA; peptide exchange yield grade (>10% +, >20% ++, >50% +++, >75% ++++)).
T1 construct: MHC class I monomer first loaded with a UV-sensitive peptide that is cleaved by UV irradiation and exchanged for the test peptide; captured on streptavidin plates; also called peptide-receptive MHC molecules
From the text: Candidate peptides for T cell based therapies according to the present invention were further tested for their MHC binding capacity (affinity). The individual peptide-MHC complexes were produced by UV-ligand exchange, where a UV-sensitive peptide is cleaved upon UV-irradiation and exchanged with the peptide of interest as analyzed. Only peptide candidates that can effectively bind and stabilize the peptide-receptive MHC molecules prevent dissociation of the MHC complexes. To determine the yield of the exchange reaction, an ELISA was performed based on the detection of the light chain (β2m) of stabilized MHC complexes. The assay was performed as generally described in Rodenko et al. (Rodenko et al., 2006)
96 well MAXISorp plates (NUNC) were coated over night with 2 ug/ml streptavidin in PBS at room temperature, washed 4× and blocked forl h at 37° C. in 2% BSA containing blocking buffer. Refolded HLA-A*02:01/MLA-001 monomers served as standards, covering the range of 15-500 ng/ml. Peptide-MHC monomers of the UV-exchange reaction were diluted 100-fold in blocking buffer. Samples were incubated for 1 h at 37° C., washed four times, incubated with 2 ug/ml HRP conjugated anti-β2m for 1 h at 37° C., washed again and detected with TMB solution that is stopped with […]. Absorption was measured at 450 nm.
With B1 the peptide exchange yield was > 75%.
B2 was tested, and the peptide exchange yield was > 75%.
In the case of B3, the peptide exchange yield is reported as > 75%.
Work on B4 yielded a peptide exchange yield of 50 to 75%.
B5 gave a peptide exchange yield of 50 to 75%.
In the case of B6, the peptide exchange yield is reported as > 75%.
B7 was tested, and the peptide exchange yield was > 75%.
With B8 the peptide exchange yield was > 75%.
With B9 the peptide exchange yield was > 75%.
Binder B10 has a peptide exchange yield of 50 to 75%.
For B11, the peptide exchange yield was > 75%.
B12 showed a peptide exchange yield of 50 to 75%.
Binder B13 has a peptide exchange yield of 50 to 75%.
In the case of B14, the peptide exchange yield is reported as > 75%.
B15 was tested, and the peptide exchange yield was > 75%.
With B16 the peptide exchange yield was 50 to 75%.
In the case of B17, the peptide exchange yield is reported as > 75%.
For B18, the peptide exchange yield was > 75%.
For B19, the peptide exchange yield was > 75%.
In the case of B20, the peptide exchange yield is reported as > 75%.
In the case of B21, the peptide exchange yield is reported as > 75%.
B22 gave a peptide exchange yield of 50 to 75%.
B23 was tested, and the peptide exchange yield was > 75%.
With B24 the peptide exchange yield was > 75%.
Work on B25 yielded a peptide exchange yield of 50 to 75%.
In the case of B26, the peptide exchange yield is reported as 20 to 50%.
B27 was tested, and the peptide exchange yield was > 75%.
With B28 the peptide exchange yield was > 75%.
Binder B29 has a peptide exchange yield of 10 to 20%.
In the case of B30, the peptide exchange yield is reported as 20 to 50%.
